# Measured values from publication PMC10199020 (Nature Communications, 2023).
# B1: IL12p40 (ligand, UniProt P29460 23-328, looked up)
# chain: IWELKKDVYVVELDWYPDAPGEMVVLTCDTPEEDGITWTLDQSSEVLGSGKTLTIQVKEFGDAGQYTCHKGGEVLSHSLLLLHKKEDGIWSTDILKDQKEPKNKTFLRCEAKNYSGRFTCWWLTTISTDLTFSVKSSRGSSDPQGVTCGAATLSAERVRGDNKEYEYSVECQEDSACPAAEESLPIEVMVDAVHKLKYENYTSSFFIRDIIKPDPPKNLQLKPLKNSRQVEVSWEYPDTWSTPHSYFSLTFCVQVQGKSKREKKDRVFTDKTSATVICRKNASISVRAQDRYYSSSWSEWASVPCS
# notes: source: bought: Peprotech (CHO produced)
# Target: T1, NL-IL23R co-expressed with IL12Rβ1 (IL-23 receptor on cells) (UniProt Q5VWK5 24-629; P42701 24-662)
# T1 construct: also called NL-IL23R and IL12Rβ1; NL-IL23R with IL12Rβ1; source: HEK293T, transiently transfected, on living cells
# T1 sequence (Q5VWK5 24-629, chain 1 of 2, other chains not shown): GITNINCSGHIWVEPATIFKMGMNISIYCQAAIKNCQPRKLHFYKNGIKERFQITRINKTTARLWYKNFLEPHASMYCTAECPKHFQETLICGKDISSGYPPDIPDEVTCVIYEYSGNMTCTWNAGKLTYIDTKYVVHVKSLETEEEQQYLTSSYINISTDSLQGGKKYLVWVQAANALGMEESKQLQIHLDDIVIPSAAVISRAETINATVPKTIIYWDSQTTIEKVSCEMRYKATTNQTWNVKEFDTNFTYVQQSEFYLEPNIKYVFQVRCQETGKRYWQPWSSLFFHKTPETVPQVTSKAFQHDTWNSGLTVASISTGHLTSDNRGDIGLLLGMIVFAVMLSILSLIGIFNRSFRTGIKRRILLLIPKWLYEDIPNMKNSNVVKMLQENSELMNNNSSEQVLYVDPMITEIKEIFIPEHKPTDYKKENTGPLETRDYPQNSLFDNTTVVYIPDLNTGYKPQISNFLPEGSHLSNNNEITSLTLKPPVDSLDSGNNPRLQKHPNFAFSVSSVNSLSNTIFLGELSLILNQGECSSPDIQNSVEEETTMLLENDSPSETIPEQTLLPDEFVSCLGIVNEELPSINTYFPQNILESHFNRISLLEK
# Assay: FRET or BRET; NanoBRET competition on living transfected HEK293T cells; 300 pM IL23-TMR displaced by unlabelled antagonist (concentration series or a single concentration); 1 h at 37 °C in HBSS with 1 mg/mL BSA
# Conditions: one partner purified
binder,measurement,value
B1,Ki,12.4 nM
